Biological target: V1 (A3B3DF), the soluble subcomplex of TtATPase without peripheral stalks (Thermus thermophilus strain HB8) (UniProt Q56403)
Test: native MS

V1 (A3B3DF), the soluble subcomplex of TtATPase without peripheral stalks (Thermus thermophilus strain HB8), sequence (Q56403 whole entry, chain 1 of 4): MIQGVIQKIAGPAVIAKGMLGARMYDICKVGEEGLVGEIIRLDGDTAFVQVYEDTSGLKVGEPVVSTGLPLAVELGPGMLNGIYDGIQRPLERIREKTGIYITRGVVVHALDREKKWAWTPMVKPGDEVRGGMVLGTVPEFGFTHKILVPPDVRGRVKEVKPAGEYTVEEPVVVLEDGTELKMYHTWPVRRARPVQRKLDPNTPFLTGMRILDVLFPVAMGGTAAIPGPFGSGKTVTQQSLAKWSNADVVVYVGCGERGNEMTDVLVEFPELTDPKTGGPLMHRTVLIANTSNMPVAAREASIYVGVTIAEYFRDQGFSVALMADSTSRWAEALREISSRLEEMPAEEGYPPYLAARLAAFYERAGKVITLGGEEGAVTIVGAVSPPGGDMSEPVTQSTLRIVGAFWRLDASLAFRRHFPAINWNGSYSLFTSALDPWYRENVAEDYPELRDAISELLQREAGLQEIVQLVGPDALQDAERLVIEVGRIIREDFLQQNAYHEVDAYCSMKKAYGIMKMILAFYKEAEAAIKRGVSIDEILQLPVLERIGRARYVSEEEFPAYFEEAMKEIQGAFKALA
V1 (A3B3DF), the soluble subcomplex of TtATPase without peripheral stalks (Thermus thermophilus strain HB8), sequence (Q56404 whole entry, chain 2 of 4, further chain): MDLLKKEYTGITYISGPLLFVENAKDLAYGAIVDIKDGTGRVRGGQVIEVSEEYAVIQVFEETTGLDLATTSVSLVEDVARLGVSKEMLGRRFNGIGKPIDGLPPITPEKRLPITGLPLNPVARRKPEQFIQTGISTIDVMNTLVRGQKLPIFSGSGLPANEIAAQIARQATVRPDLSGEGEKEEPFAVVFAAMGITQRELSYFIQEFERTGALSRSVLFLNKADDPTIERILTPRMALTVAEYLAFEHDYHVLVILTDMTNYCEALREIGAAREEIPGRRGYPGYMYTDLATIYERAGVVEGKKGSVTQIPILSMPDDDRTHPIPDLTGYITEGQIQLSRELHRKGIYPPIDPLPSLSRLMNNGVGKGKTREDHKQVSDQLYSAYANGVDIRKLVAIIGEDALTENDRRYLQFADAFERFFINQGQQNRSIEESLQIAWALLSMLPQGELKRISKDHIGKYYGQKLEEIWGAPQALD
V1 (A3B3DF), the soluble subcomplex of TtATPase without peripheral stalks (Thermus thermophilus strain HB8), sequence (O87880 whole entry, chain 3 of 4, further chain): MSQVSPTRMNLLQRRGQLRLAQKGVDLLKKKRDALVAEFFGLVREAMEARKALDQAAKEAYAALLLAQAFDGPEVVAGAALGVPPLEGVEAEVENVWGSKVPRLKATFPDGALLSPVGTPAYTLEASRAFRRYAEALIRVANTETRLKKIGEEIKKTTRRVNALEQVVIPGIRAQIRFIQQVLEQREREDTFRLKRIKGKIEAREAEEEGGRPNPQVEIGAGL
V1 (A3B3DF), the soluble subcomplex of TtATPase without peripheral stalks (Thermus thermophilus strain HB8), sequence (P74903 whole entry, chain 4 of 4, further chain): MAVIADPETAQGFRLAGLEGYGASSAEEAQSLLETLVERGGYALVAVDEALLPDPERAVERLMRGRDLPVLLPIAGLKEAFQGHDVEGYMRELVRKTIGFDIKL

stoichiometry N: 2
Substance: peripheral EG stalk of TtATPase (from UniProt P74901 1-188) (complex)

From paper PMC4067995
